Experimental data taken from US20140271651A1 (AbbVie / Abbott, published 2014).

Biological target: T1, GP73-hFc (human GP73 amino acids 63 to 400 fused at the C-terminus to human IgG1 Fc) (human)
T1 construct: Expressed in HEK293F, CHO or HepG2 cells; the host is named under assay; also called HEK expressed GP73-hFc; CHO expressed GP73-hFc
T1 chain: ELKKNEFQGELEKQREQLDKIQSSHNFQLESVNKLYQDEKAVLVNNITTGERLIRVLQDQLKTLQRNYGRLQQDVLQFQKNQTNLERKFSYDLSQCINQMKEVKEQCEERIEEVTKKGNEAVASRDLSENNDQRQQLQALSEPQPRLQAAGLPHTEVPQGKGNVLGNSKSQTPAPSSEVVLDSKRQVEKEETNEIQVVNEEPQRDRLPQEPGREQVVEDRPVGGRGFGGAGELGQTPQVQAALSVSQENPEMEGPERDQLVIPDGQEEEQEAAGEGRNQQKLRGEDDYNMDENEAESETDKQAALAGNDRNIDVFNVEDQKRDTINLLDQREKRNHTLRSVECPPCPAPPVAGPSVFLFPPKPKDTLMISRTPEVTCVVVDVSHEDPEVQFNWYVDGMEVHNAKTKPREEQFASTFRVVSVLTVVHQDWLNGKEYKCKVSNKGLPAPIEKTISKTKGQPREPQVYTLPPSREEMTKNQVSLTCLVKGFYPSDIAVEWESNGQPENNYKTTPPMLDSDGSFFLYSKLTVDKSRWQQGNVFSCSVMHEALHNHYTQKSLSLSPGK
Assay: SPR Biacore 2000, mAb captured on rabbit anti-mouse IgG, HEK GP73-hFc analyte 0.412-100 nM, 1:1 fit; standard error 2 × 10^-5, larger than the value; dissociation hardly resolved
Experimental: First, an approximately 13,000-15,000 RU rabbit anti-mouse IgG Capture Biosensor was created by amine-coupling rabbit anti-mouse IgG antibody (GE Healthcare) to a CM5 biosensor chip (GE Healthcare) via EDC/NHS/ethanolamine chemistry provided in an Amine Coupling Kit (GE Healthcare) after pre-treating the biosensor with duplicate injections of 100 mM HCl, 50 mM NaOH, and 0.1% SDS. Purified GP73 antibody and antigen (HEK GP73-hFc) were diluted into a running buffer (hereinafter “running buffer”) composed of HBS-EP buffer (GE Healthcare) supplemented with 0.1% BSA and 0.1% CM-Dextran. Each GP73 antibody was diluted to 1 μg/mL. The GP73-hFc antigen was diluted to concentrations of 0.412 to 100 nM using a 3-fold dilution series assuming an oligomeric molecular weight of 490 kDa (Abbott Laboratories).
The GP73-hFc antigen program was as follows. After equilibrating the rabbit anti-mouse IgG Capture Biosensor for 3 min at 5 μL/minute with running buffer, GP73 antibody (7-14 μL) was injected over individual flow cells with one flow cell being left blank as a reference flow cell. […] The binding kinetics (association and dissociation) were monitored via sensorgrams during antigen injection and running buffer re-equilibration. […] Standard errors of determined values are reported in parentheses with respect to the smallest number place value.

koff: ≤ 1e-05 s⁻¹
B1: anti-GP73 monoclonal antibody 1B-4971 (antibody, V domains shown)
VH: QVQLQQSGPALVKPGASVKMSCKASGYTFTNYVIHWVKQKPGQGLERIGYIWPYNDGTKFNEKFKGKATLTSDKSSSTAYMELSSLTSEDSAVYYCSSQQLAYWGQGTTLTVSS
VL: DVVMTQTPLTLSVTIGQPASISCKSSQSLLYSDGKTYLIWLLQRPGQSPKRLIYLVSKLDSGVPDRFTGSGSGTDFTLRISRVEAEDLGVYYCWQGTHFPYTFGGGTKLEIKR
notes: Biotin labelled in some assays; also called mAb 1B-4971; 1B-4971-Bt
